Legend:
[1] = biological target: T1, GRP78 (soluble / recombinant protein) (UniProt P11021 19-654); assay: method not stated
T1 construct: also called GRP78-HRP; HRP-labeled GRP78

[2] = biological target: T1, GRP78 (soluble / recombinant protein)

T1 sequence (P11021 19-654 limits assumed): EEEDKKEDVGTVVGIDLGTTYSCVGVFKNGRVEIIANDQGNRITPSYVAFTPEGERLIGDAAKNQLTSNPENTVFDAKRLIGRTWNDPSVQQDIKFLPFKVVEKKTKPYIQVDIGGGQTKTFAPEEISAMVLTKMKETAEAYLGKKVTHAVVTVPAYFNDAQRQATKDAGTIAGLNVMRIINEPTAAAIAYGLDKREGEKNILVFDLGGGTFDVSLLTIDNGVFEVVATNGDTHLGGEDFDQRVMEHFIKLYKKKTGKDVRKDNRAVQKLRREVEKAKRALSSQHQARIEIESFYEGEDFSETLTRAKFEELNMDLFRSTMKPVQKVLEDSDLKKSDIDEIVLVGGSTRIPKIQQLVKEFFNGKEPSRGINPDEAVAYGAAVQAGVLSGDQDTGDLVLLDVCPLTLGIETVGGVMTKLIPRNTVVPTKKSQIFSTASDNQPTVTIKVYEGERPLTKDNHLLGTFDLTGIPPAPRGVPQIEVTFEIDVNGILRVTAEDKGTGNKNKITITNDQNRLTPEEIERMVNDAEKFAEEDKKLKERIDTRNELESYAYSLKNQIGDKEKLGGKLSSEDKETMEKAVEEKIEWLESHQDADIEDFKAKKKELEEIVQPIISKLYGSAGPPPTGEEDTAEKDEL

B1: K5 (5th kringle domain of human plasminogen) (other)
chain: SEEDCMFGNGKGYRGKRATTVTGTPCQDWAAQEPHRHSIFTPETNPRAGLEKNYCRNPDGDVGGPWCYTTNPRKLYDYCDVPQCAAPKS
notes: also called kringle 5
Kd [1]: 0.6 nM
IC50 [2]: 460 nM

Reference: patent US20260242447A1 (CREATIVE BIOTHERAPEUTICS, published 2026)
